Assay results: article PMC7375243, “Structural Basis of Human Helicase DDX21 in RNA Binding, Unwinding, and Antiviral Signal Activation” (Advanced Science, 2020)

What was measured:
Settings in all cases: protein: recombinant; tags: N-terminal His-SUMO, removed by ULP1; label: FAM; single strand
DDX21 core 4R to A = molecular target: T1, DDX21 core 4R to A (human, UniProt Q9NR30 188-563, R255A;R270A;R318A;R476A); experiment: UV crosslinking; reduced by more than half; MST: 50 mM Tris pH 7.5, 50 mM KCl, 2 mM MgCl2, 1 mM TCEP, 0.01% NP-40, 0.05 mg/mL BSA, 2 mM AMPPNP, 50 nM FAM-RNA; temperature not given; crosslinking buffer not in material
T1 sequence: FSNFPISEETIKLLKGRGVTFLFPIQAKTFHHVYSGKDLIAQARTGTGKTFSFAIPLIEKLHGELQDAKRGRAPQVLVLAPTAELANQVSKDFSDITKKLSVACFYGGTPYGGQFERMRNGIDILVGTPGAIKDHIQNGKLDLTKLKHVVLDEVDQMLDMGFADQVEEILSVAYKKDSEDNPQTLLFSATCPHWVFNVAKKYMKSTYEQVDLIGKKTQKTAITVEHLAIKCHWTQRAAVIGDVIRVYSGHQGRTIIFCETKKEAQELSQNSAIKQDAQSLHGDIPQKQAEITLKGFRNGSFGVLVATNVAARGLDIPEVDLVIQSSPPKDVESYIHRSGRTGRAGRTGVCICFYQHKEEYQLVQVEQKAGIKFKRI

DDX21 core 3R to A = molecular target: T2, DDX21 core 3R to A (human, UniProt Q9NR30 188-563, R270A;R318A;R476A); experiment: as above
T2 sequence: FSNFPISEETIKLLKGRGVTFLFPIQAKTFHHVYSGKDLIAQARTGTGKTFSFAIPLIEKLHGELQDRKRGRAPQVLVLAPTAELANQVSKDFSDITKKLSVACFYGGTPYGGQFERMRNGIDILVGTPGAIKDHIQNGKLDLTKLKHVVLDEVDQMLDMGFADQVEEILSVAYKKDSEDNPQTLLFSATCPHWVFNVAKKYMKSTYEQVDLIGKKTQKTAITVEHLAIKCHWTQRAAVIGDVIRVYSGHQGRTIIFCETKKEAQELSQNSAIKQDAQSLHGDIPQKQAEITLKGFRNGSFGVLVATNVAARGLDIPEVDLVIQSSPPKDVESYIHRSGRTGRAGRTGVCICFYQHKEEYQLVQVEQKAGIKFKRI

DDX21 core 7A = molecular target: T3, DDX21 core 7A (human, UniProt Q9NR30 188-563, R270A;T315A;R318A;D321A;Q352A;R476A;T494A); experiment: UV crosslinking; comparable to WT; MST: 50 mM Tris pH 7.5, 50 mM KCl, 2 mM MgCl2, 1 mM TCEP, 0.01% NP-40, 0.05 mg/mL BSA, 2 mM AMPPNP, 50 nM FAM-RNA; temperature not given; crosslinking buffer not in material
T3 sequence: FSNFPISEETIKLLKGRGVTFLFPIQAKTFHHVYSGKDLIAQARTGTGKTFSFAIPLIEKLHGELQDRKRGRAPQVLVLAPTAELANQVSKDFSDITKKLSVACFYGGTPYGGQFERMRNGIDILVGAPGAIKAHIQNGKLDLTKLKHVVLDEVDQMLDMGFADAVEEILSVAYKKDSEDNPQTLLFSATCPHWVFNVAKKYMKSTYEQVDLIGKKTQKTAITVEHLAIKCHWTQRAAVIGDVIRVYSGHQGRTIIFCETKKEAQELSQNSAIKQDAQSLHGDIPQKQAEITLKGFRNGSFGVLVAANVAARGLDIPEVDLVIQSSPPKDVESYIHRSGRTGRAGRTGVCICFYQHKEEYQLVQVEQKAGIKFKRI

DDX21 core 8A = molecular target: T4, DDX21 core 8A (human, UniProt Q9NR30 188-563, R255A;R270A;T315A;R318A;D321A;Q352A;R476A;T494A); experiment: as above
T4 sequence: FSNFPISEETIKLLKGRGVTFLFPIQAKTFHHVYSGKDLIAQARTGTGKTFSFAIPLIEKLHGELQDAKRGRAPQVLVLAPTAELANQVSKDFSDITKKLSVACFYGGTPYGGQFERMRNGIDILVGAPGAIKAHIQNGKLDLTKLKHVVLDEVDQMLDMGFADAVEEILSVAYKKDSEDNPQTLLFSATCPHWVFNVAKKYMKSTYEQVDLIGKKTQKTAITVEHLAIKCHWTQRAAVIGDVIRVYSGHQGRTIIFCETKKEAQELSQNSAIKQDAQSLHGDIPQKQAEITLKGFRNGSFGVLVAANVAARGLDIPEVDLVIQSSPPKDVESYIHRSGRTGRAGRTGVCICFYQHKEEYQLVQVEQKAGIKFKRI

[1] = molecular target: T5, DDX21 helicase core (D1D2, DDX21-delNC) (human, UniProt Q9NR30 188-563); experiment: MST; 2 mM AMPPNP, 2 mM MgCl2; value only in figure; MST: 50 mM Tris pH 7.5, 50 mM KCl, 2 mM MgCl2, 1 mM TCEP, 0.01% NP-40, 0.05 mg/mL BSA, 2 mM AMPPNP, 50 nM FAM-RNA; temperature not given; crosslinking buffer not in material
T5 sequence: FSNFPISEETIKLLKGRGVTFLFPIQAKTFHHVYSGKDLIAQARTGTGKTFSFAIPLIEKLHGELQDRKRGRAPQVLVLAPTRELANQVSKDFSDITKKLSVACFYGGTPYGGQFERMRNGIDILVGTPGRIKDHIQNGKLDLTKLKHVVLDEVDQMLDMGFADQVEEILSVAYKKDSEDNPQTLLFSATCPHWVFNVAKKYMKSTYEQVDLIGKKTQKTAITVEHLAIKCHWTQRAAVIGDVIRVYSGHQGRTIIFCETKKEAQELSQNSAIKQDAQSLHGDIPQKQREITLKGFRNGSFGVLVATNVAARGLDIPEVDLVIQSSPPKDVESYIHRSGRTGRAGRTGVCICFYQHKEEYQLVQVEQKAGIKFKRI

In the case of UUUUUUUUUUUUUUU (ssRNA) [FAM-U15], the binding signal (DDX21 core 4R to A) is reported as < 50 % of WT, the binding signal (DDX21 core 3R to A) is reported as < 50 % of WT and the binding result (DDX21 core 7A) is reported as “binds”. UUUUUUUUUUUUUUU (ssRNA) [FAM-U15]: binds (DDX21 core 8A); binds [1].
